Laboratory results published in article PMC4780118, “Mechanisms involved in xyloglucan catabolism by the cellulosome-producing bacterium Ruminiclostridium cellulolyticum” (Scientific Reports, 2016).
Values belong to the molecule of their own block, whether it stands above or below them.

Experiments:
[1] = molecular target: T1, SBP2458 (Ruminiclostridium cellulolyticum, UniProt B8I622); test: isothermal titration calorimetry; format: binding; details: 150 mM NaCl, 25 mM HEPES pH 7.0, 20 °C; single-site model
T1 construct: gene Ccel_2458

[2] = substrate: O=[N+]([O-])c1ccc(O[C@@H]2O[C@H](CO)[C@H](O)[C@H](O)[C@H]2O)cc1; test: purified protein; details: assay as in ref. 19
[3] = substrate: O=[N+]([O-])c1ccc(O[C@@H]2O[C@H](CO)[C@@H](O)[C@H](O)[C@H]2O)cc1; test: purified protein; details: assay as in ref. 19
[4] = substrate: O=[N+]([O-])c1ccc(O[C@H]2OC[C@@H](O)[C@H](O)[C@H]2O)cc1; test: pNP release kinetics; format: biochemical, Ruminiclostridium cellulolyticum; details: assay as in ref. 19

T1 sequence (B8I622 entry or part of it): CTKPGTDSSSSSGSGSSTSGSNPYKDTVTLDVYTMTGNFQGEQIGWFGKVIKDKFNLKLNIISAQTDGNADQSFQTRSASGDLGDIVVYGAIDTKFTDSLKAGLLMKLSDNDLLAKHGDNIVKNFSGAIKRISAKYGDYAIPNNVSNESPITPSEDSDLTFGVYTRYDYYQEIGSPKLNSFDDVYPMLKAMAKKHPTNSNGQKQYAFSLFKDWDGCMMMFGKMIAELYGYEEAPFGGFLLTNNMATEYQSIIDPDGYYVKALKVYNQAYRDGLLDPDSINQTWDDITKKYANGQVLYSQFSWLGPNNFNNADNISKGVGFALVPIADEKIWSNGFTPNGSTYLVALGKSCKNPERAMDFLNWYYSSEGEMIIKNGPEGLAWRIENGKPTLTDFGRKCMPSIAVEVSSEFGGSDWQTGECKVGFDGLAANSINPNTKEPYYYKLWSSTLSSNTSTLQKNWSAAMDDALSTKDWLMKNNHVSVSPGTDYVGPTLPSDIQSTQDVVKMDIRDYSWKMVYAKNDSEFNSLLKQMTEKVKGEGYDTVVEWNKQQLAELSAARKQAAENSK

Kd [1]: 3.65 ± 1.1 nM
Molecule: OC[C@H]1OC(O)[C@H](O)[C@@H](O)[C@@H]1O[C@@H]1O[C@H](CO[C@H]2OC[C@@H](O)[C@H](O)[C@H]2O)[C@@H](O[C@@H]2O[C@H](CO[C@H]3OC[C@@H](O)[C@H](O)[C@H]3O)[C@@H](O[C@@H]3O[C@H](CO[C@H]4OC[C@@H](O)[C@H](O)[C@H]4O)[C@@H](O)[C@H](O)[C@H]3O)[C@H](O)[C@H]2O)[C@H](O)[C@H]1O (stereo partly shown) [XXXG]

B1: Gal42A (Ruminiclostridium cellulolyticum H10) (protein)
chain: MDKYMPIGMNFPHILHGGDYNPDQWLKAPKILDEDFRLMKLAHCNVMTIGIFSWMALEPEEGKFDFSWLDEIMDKLSKNEMTAILATPSGAKPSWMSQKYPEILRTQADRLKDFHGGRHNHCLTSPIYRKKVSQINRLLAERYARHPALILWHISNEYSGECHCPLCQEAFRSFLMKKYEGDLERLNHEWWTGFWAHRYTDWSQIESPSPRGEHETHGLILDWKRFVSHQTIDFLKNEIKPLRELTPEISVTTNLMGTFPGLEYRELSKEIDVVSWDNYPTWHTSEQPDWKIGIRTSFVHDINRSLKQGKPFMMMESTPSTVNWQKVNKLKRPGMHMLSSLQAVAHGSDTVQYFQWRKSRGSFEKFHGAVVDHVGHENTRVFREVAQVGQVLEKLDEVVGTTVHPKVAIIFDWENRWAMEEAQALARDRIKYEETCVAHYTAFWKRGVSVDIIGARDNLSQYKLVIAPMLYLTHPGVGERIETFVNEGGTFVATYWSGIVNENDLCHLGGFPGPLRAVTGIWSEEIDTMHPDENNSLILSDNSLGLSGTYRVQDFCDLVHAESAEVLARYGEEFYAGRPALTVNRFGKGNAYYMAARTGEDFLEDFYNALMKKLTLSRTLDVELPCGVTSQLRTDGQNRYIFLMNFNHEKQDIQLTKGLTDMFTGEIRQGMLELAPFDVKVLKAKI
Km [2]: 1560 ± 300 µM
kcat [2]: 4,800 ± 320 μmol product per μmol enzyme × min^−1
kcat/Km [2]: 51300 M⁻¹ s⁻¹

B2: Glu3A (Ruminiclostridium cellulolyticum H10) (protein)
chain: MQYDQIDKKIDELLSMMTLEEKAGMCHGAGLFRTAGVPRLGIPPLVFSDGPMGIRNEFADDNWNTVGGNTDFVTYLPANTALAATFNRTLAESLGEVLGCEARGRGKDVILAPGVNIIRTPLCGRNYEYFSEDPILTAELAASFIKGVQRFDVAACVKHFAANNQETERLAVSAEVDELTLRELYFPAFEASVRAGVLTVMTAYNRLNGTFCSHSRQLITEILREEWGFNGVVVSDWGAVHDTESPAIAGLDIEMNVTSNFNEYFFAKPLINAIKDGKIPERMLDDKVRRILRLMFRLNMFSKDRKRGGFNLPQHQQAVLDAAKESFVLLKNDREVLPLNADGIKTVAVIGSNADKKHSSGGDSAAVKALYEVTPLSGIVMRLASGAKVTYYPGCPDETHYKEEFHIPSNADEKTRADIEEKARAADEDYRKIQMRLEDEAIQAAKTADAVIFIGGNGHEQESEGRDRPDMALPYEQDKLLSRVLDANPNTVVVIISGSPVNMSGWIDKAPTVMQGFFSGMHGGTALAAVLFGDENPSGHLPFTIPLKEEETGASALGEYPGGETVCYSEGLFVGYRYHDAFNIPPLFPFGYGLSYTTFSLANESFRRLPCVGTEYEIHVDITNSGNRPGAQSVQLYVEPEKKDGSPIRTLKGFEKTYLNPDETKTITFKLDERTFSEFRPHEGWVFVPGNYTIHIGTSSRELPIAIALAL
Km [3]: 44600 ± 19000 µM
kcat [3]: 1,350 ± 164 μmol product per μmol enzyme × min^−1
kcat/Km [3]: 500 M⁻¹ s⁻¹

B3: Xyl31A (Ruminiclostridium cellulolyticum H10) (protein)
chain: MKFLNGYWMSKEGYSLYYPSEAYRIEKSGDVLRIFAPCNQINHRGDTLGGPALTIELSSPAEDVIRISVYHYKGVKKAGPYFELNTPGISPSISEDEDAVWFGSGQIKARIDKKTYNIDYYRGDERLTGSGWRHLAYIKHESGQTYMREQLDLDVGECVYGLGERFTPFVKNGQTVDIWNQDGGTCTEQSYKNIPFYITNRGYGVFVNDPGLVSFEICSEVVSRSQFSVEGESLDYFIIGGSDCKEVISNYTALTGRPAIPPAWSFGLWLSTSFTTNYDEKTVTSFINGMSKRRIPLSVFHFDCFWMKEFNWCDFIWDKDVFPDPKKMLSKLKEKGLHICVWINSYVSQESVLFDEGMQKGYFIHKKNGSVWQWDMWQPGMAIVDFTNPDACNWFSQKLLNLVDMGVDCFKTDFGERIPTEDVVYYDGSDPVKMHNFYTYLYNRTVFDTLKQVGKEAVVFARSATAGSQKFPVHWGGDCTADFSSMAESLRGGLSLGLCGFGFWSHDIGGFEQTATADVYKRWLAFGMLSSHSRLHGSTGYRVPWLYDEEAVDVLRFFANLKCRLMPYIYKTAIQASQQGLPSARAMFVEFPEDPACTTLDRQYMLGDSLLVAPVFSKSGLVEYYLPLGEWYNLLTGEIVTGGSYRKEKHNYMSLPLFVRPGSLLAIGDNEEETVYEYAQGVRLLLTPLADGYEASTSVYEKDGHEALNVTVNRKESDITVIAEGDGKPWSIKLCGITAKGCTGGTIEKEQDGIVFMPGNSTGSYTVRIL
notes: C-terminal His6 (pET28a); E. coli BL21(DE3)
Km [4]: 1290 ± 150 µM
kcat [4]: 12 ± 1.2 μmol product per μmol enzyme × min^−1
kcat/Km [4]: 155 M⁻¹ s⁻¹
